{
  "source": "patent US20200010567A1",
  "about": "(NEURIMMUNE, published 2020)",
  "key": {"[1]": {"molecular_target": "T1, GP10: H-(GP)10HHHHHH-NH2 (C-terminal amide)", "T1 peptide": "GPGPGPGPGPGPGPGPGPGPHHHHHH", "experiment": "indirect ELISA, coated His-tagged peptide; indirect ELISA, peptide coated directly on the plate", "source_text": "(§1) In brief, dipeptide repeat proteins were synthesized and purified by Schafer-N (Copenhagen, Denmark): GA₂₀: H-(GA)₂₀HHHHHH-NH₂; GA₁₀: H-(GA)₁₀HHHHHH-NH₂; GA₆: H-(GA)₆HHHHHH-NH₂; GA₅: H-(GA)₅HHHHHH-NH₂; GA₄: H-(GA)₄HHHHHH-NH₂; GA₃: H-(GA)₃HHHHHH-NH₂; GA₂: H-(GA)₂HHHHHH-NH₂; GP₂₀: H-(GP)₂₀HHHHHH-NH₂; GP₁₀: H-(GP)₁₀HHHHHH-NH₂; GP₆: H-(GP)₆HHHHHH-NH₂; GP₅: H-(GP)₅HHHHHH-NH₂; GP₄: H-(GP)₄HHHHHH-NH₂; GP₃: H-(GP)₃HHHHHH-NH₂; GP₂: H-(GP)₂HHHHHH-NH₂. GR₂₀: H-(GR)₂₀HHHHHH-NH₂; GR₁₀: H-(GR)₁₀HHHHHH-NH₂; GR₆: H-(GR)₆HHHHHH-NH₂; GR₅: H-(GR)₅HHHHHH-NH₂; GR₄: H-(GR)₄HHHHHH-NH₂; GR₃: H-(GR)₃HHHHHH-NH₂; GR₂: H-(GR)₂HHHHHH-NH₂; PA₂₀: H-(PA)₂₀HHHHHH-NH₂; PA₁₀: H-(PA)₁₀HHHHHH-NH₂; PA₆: H-(PA)₆HHHHHH-NH₂; PA₅: H-(PA)₅HHHHHH-NH₂; PA₄: H-(PA)₄HHHHHH-NH₂; PA₃: H-(PA)₃HHHHHH-NH₂; PA₂: H-(PA)₂HHHHHH-NH₂; PR₂₀: H-(PR)₂₀HHHHHH-NH₂; PR₁₀: H-(PR)₁₀HHHHHH-NH₂; PR₆: H-(PR)₆HHHHHH-NH₂; PR₅: H-(PR)₅HHHHHH-NH₂; PR₄: H-(PR)₄HHHHHH-NH₂; PR₃: H-(PR)₃HHHHHH-NH₂; PR₂: H-(PR)₂HHHHHH-NH₂. 96-well microplates (Corning Incorporated, Corning, USA) were coated with dipeptide repeat protein peptides at a concentration of 50 μg/ml in coating buffer (15 mM Na₂CO₃, 35 mM NaHCO₃, pH 9.42). Non-specific binding sites were blocked for 1 h at room temperature with PBS/0.1% Tween®-20 containing 2% BSA (Sigma-Aldrich, Buchs, Switzerland). Primary antibodies were diluted to the indicated concentrations and incubated 1 h at room temperature, followed by incubation with a donkey anti-human IgG Fcγ-specific antibody conjugated with HRP (Jackson ImmunoResearch Laboratories, Inc., West Grove, USA). Binding was determined by measurement of HRP activity in a standard colorimetric assay. EC₅₀ values were estimated by non-linear regression using GraphPad Prism software (San Diego, USA)."}, "[2]": {"molecular_target": "T2, GP6: H-(GP)6HHHHHH-NH2", "T2 peptide": "H-GPGPGPGPGPGPHHHHHH-NH2", "experiment": "indirect ELISA, coated His-tagged peptide; indirect ELISA, peptide coated directly on the plate", "source_text": "as §1"}, "[3]": {"molecular_target": "T3, GA2: H-(GA)2HHHHHH-NH2", "T3 peptide": "H-GAGAHHHHHH-NH2", "experiment": "indirect ELISA, His-tagged peptide coated at 50 ug/ml, antibody titrated [also D00026 FIG. 7K]", "experimental": "(§2) 96-well microplates (Corning Incorporated, Corning, USA) were coated with dipeptide repeat protein peptides at a concentration of 50 μg/ml in coating buffer (15 mM Na₂CO₃, 35 mM NaHCO₃, pH 9.42). Non-specific binding sites were blocked for 1 h at room temperature with PBS/0.1% Tween®-20 containing 2% BSA (Sigma-Aldrich, Buchs, Switzerland). Primary antibodies were diluted to the indicated concentrations and incubated 1 h at room temperature, followed by incubation with a donkey anti-human IgG Fcγ-specific antibody conjugated with HRP (Jackson ImmunoResearch Laboratories, Inc., West Grove, USA). Binding was determined by measurement of HRP activity in a standard colorimetric assay. EC₅₀ values were estimated by non-linear regression using GraphPad Prism software (San Diego, USA).\n(§3) High affinity binding was detected for poly-GA DPRs harboring 10 or 20 (GA)-repeats, reflected in an EC₅₀ in the subnanomolar or low nanomolar range (FIGS. 7A, 7C-7I)."}, "[4]": {"molecular_target": "T4, GA5: H-(GA)5HHHHHH-NH2", "T4 peptide": "H-GAGAGAGAGAHHHHHH-NH2", "experiment": "indirect ELISA, His-tagged peptide coated at 50 ug/ml, antibody titrated [also D00026 FIG. 7K]", "experimental": "as §2, §3"}, "[5]": {"molecular_target": "T5, GA4: H-(GA)4HHHHHH-NH2", "T5 peptide": "H-GAGAGAGAHHHHHH-NH2", "experiment": "indirect ELISA, His-tagged peptide coated at 50 ug/ml, antibody titrated [also D00026 FIG. 7K]", "experimental": "as §2, §3"}, "[6]": {"molecular_target": "T6, GA3: H-(GA)3HHHHHH-NH2", "T6 peptide": "H-GAGAGAHHHHHH-NH2", "experiment": "indirect ELISA, His-tagged peptide coated at 50 ug/ml, antibody titrated [also D00026 FIG. 7K]", "experimental": "as §2, §3"}, "[7]": {"molecular_target": "T7, (GP)15: H-C(GP)15-OH", "T7 construct": "synthetic, not coupled to BSA; also called poly-GP DPR protein peptide", "T7 peptide": "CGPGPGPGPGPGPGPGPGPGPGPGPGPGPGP", "experiment": "indirect ELISA, uncoupled peptide coated, antibody titrated [also D00014 FIG. 3H]", "experimental": "as §2, with “In brief, dipeptide repeat proteins were synthesized and purified by Schafer-N(Copenhagen, Denmark): (GA)₁₅: H-CHHHHHH(GA)₁₅-OH; (GP)₁₅: H-C(GP)₁₅-OH; (GR)₁₅: H-C(GR)₁₅-OH; (PA)₁₅: H-C(PA)₁₅-OH; (PR)₁₅: H—C(PR)₁₅-OH. DPR protein peptides were then conjugated via a bifunctional linker (SMCC) to bovine serum albumin (BSA). 96-well microplates” for “96-well microplates”, “coated with BSA-coupled or -uncoupled dipeptide repeat” for “coated with dipeptide repeat”, “concentration of either 5 μg/ml or 20 μg/ml in” for “concentration of 50 μg/ml in”"}, "[8]": {"molecular_target": "T8, PA4: H-(PA)4HHHHHH-NH2", "T8 peptide": "H-PAPAPAPAHHHHHH-NH2", "experiment": "indirect ELISA, His-tagged peptide coated at 50 ug/ml, antibody titrated [also D00028 FIG. 7P]", "experimental": "as §2, §3"}},
  "data": [
    {"binder": "NI-308.5G2 (antibody, V domains shown, Recombinant complete human IgG1, kappa) VH: EVQLVQSGADLRNPGASVTVSCTASGYHFADNAINWLRQAPGQRLEWMGWINIYSGNTKYSQNFQGRVTFTRNTSASTAFMHLRSLRSEDTAVYFCARDPDSSGYYLPYFDYWGQGTLVTVSS VL: DIQLTQSPDSLTLSLGERATINCKSSQSVFYNSNNKNYLAWYQQKPGQPPKLLMYWASTRESGVTDRFSGSGSGTDFTLTITNLQAEDVAVYYCQQFYSSPLTFGGGTKVEIK", "values": [
      {"measurement": "EC50", "setting": "[1]", "value": 0.94, "unit": "nM"},
      {"measurement": "EC50", "setting": "[2]", "value": 26.8, "unit": "nM"},
      {"measurement": "binding result", "setting": "[3]", "value": "no binding (tested: about 4x10^5 pM (last point))"},
      {"measurement": "binding result", "setting": "[4]", "value": "no binding (tested: about 4x10^5 pM (last point))"},
      {"measurement": "binding result", "setting": "[5]", "value": "no binding (tested: about 4x10^5 pM (last point))"},
      {"measurement": "binding result", "setting": "[6]", "value": "no binding (tested: about 4x10^5 pM (last point))"}
    ]},
    {"binder": "NI-308.46E9 (antibody, V domains shown, Recombinant complete human IgG1, kappa) VH: QVQLQESGPGLVKPSETLSLTCTVSGASISGSTYYWGWIRQPPGKGLEYIGRIYYSGSTYYNPSLKSRATISVDTSKNQLSLTLSSVTAADTAVYYCVRPFYAGSGNSPFDYWGQGTLVTVSS VL: CEIVLTQSPATVSVSPGERATLSCRASQSVSTNLAWYQQKPGQPPRLLIYGASTRATGIPARFSGSGSGAEFTLTISSLQSEDFVVYYCQQYNNWPPAFGGGTKVEIK", "values": [
      {"measurement": "EC50", "setting": "[7]", "value": 22, "unit": "nM"}
    ]},
    {"binder": "NI-308.4M1 (antibody, V domains shown, Recombinant complete human IgG1, kappa) VH: EVQLVETGGGVVQPGGSLRLSCEASGFTIGTYAMHWVRQFPGKGLDWVAVISFDGTTEYYTDAVKGRFTISRDNAKNTLYLQMNYLRGDDTAIYFCARDFTSSGETGSWTQVPDLWGQGTLVTVSS VL: CEIVMTQSPATLSLSPGERATLSCRASQSVTKYLAWYQQKPGQAPRLLIYDVSYRAAGTPARFSGSGSGTDFTLTISSLEPEDFAVYYCHQRSSWPPVTFGGGTKVEIK", "values": [
      {"measurement": "binding result", "setting": "[8]", "value": "no binding (tested: about 4x10^5 pM (last point))"}
    ]}
  ]
}
